System: luciferase positive tumor cells
Test: efficacy of sTRAIL on luciferase-positive tumor cells grown in the three-dimensional culture device, luciferin light signal
Type: cell-based
Details: cells grown 72 hours in the device, then 24 hours of treatment; luciferin substrate, luminometer
Experimental: In the culture device 1 the tumor cells “C” which are luciferase-positive are grown for 72 hours and it is possible to monitor the extent of the growth and estimate the number of tumor cells “C” grown inside the culture device 1 by adding the luciferin substrate and detecting the light signal, as shown in the diagram in FIG. 20.
The effectiveness of the sTRAIL biological agent, which is added to the culture medium and is loaded inside the culture device 1, is tested on the tumor mass inside the culture device 1 evaluated at 72 hours.
The efficacy of the treatment is determined after 24 hours by adding the luciferin substrate which is metabolized by the viable tumor cells “C” by the action of the luciferase.
Since the cells “C” that are dead or in apoptosis no longer produce the enzyme, they cannot metabolize the substrate and, consequently, they are no longer able to generate a light signal.

B1: sTRAIL: soluble TNF-related antitumor biological agent apoptosis-inducing ligand; biological cytotoxic agent (protein, UniProt P50591 39-281, looked up)
extracellular domain: TNELKQMQDKYSKSGIACFLKEDDSYWDPNDEESMNSPCWQVKWQLRQLVRKMILRTSEETISTVQEKQQNISPLVRERGPQRVAAHITGTRGRSNTLSSPNSKNEKALGRKINSWESSRSGHSFLSNLHLRNGELVIHEKGFYYIYSQTYFRFQEEIKENTKNDKQMVQYIYKYTSYPDPILLMKSARNSCWSKDAEYGLYSIYQGGIFELKENDRIFVSVTNEHLIDMDHEASFFGAFLVG
modifications: extracellular domain soluble form
  light signal (RLUs, proportional to viable cells) after treatment: light signal is reduced in intensity

Source: patent US20200407673A1, “DEVICE, KIT AND METHOD FOR THREE-DIMENSIONAL CELL CULTURE” (RIGENERAND S.R.L., priority 2018, published 2020)
